From paper PMC9668089 come the findings set out here.

The assay concerns the target p170, truncated ORF2-encoded protein of aa 439-608 from hepatitis E virus CCJD-517 (hepatitis E virus CCJD-517 (HEV-3)). As to the kind of experiment: non-reducing SDS-PAGE.

Broadly, the stoichiometry N is the number of molecules, sites or subunits per partner or assembly.

Regarding “p170, truncated ORF2-encoded protein of aa 439-608 from hepatitis E virus CCJD-517 (domain or fragment)”, the stoichiometry N is 2.
